Data taken from PMC11050286.

Target: human calmodulin wild-type (pIRES-DsRed-HisB-cMyc-CaM WT) (human) (UniProt P0DP23)

- TRAM-34 sensitive whole-cell K+ current density at +60 mV, HEK293T cells co-transfected with SK4 R352D/R355D and CaM WT, 0.1 uM Cai (not different from background): 54 pA/pF
Substance: human SK4 R352D/R355D (from UniProt O15554 1-427) (natural protein)
